Two molecules from patent US11944665B2, “Methods and compositions for modulating lymphatic vessels in the central nervous system” (University of Virginia Patent Foundation, priority 2016, dated 2024) can be followed below.

Assay [1] deals with meningeal lymphatic vessels. The experiment in a line: Transcranial gel+VEGF-C156S in old mice (Example 4). The following applies: one month transcranial treatment, 2 h after OVA-A647 ICM. Format: in vivo, C57BL/6 mice. As to the method: […] of a gel matrix alone (vehicle) or containing 200 ng of recombinant human VEGF-C156S was applied every two weeks on top of a thinned skull of old C57BL/6 mice. One month after the initial treatment, OVA-A647 was injected ICM and mice were transcardially perfused with saline 2 h post injection. […] OVA-A647 alone is shown in the inset in the upper right corner of each of FIGS. 27A and 27B, and LYVE-1 alone is shown in the inset in the lower right corner of each of FIGS. 27A and 27B.

Assay [2] relates to meningeal lymphatic vessels. Briefly: i.c.v. (cisterna magna) injection of rhVEGF-c, meningeal lymphatic vessel diameter (FIG. 2D-E). The following applies: single injection of recombinant protein into the CSF (i.c.v.). Format: in vivo, mice. The text has this:
FIGS. 2A-H are a series of microscope images and graphs showing Molecular and structural characterization of meningeal lymphatic vessels. FIG. 2A is a series of representative images of Prox1 expression in the nuclei of Lyve-1^+ vessels in the dural sinuses of Prox1^tdT mice (scale bars, 10p m)(in order of left-to-right, the four panels show Lyve-1, Prox1-tdTOMATO, DAPI, and overlay). FIG. 2B is a series of representative images of podoplanin and Lyve-1 labelling on dural sinuses (scale bar, 40 μm) (in order of left-to-right, the three panels show Lyve-1. Podoplanin, and overlay). FIG. 2C is a series of representative images of VEGFR3 and Lyve-1 staining on dural sinuses (scale bar, 20 μm)(in order of left-to-right, the three panels show VEGFR3. Lyve-1, and overlay). For FIGS. 2D and 2E Adult mice were injected i.c.v. (cisterna magna) with 4 μg of rhVEGF-c (Cys156Ser) or with PBS. Meninges were harvested 7 and 14 days after the injection. […] FIG. 2E is a graph showing quantification of the meningeal lymphatic vessel diameter (mean±s.e.m.; n=4 mice each group, *P<0.05, two-way ANOVA with Bonferroni post hoc test). FIGS. 2F and 2G are a series of representative images of smooth muscle cells (alpha-smooth muscle actin, α-SMA) and Lyve-1 labelling on dural sinuses (scale bars, 50 μm (g) or 20 μm(g)). […]

A further assay concerns meningeal lymphatic. The experiment in a line: Lymphatic drainage of fluorescent microbeads into deep cervical lymph nodes (FIG. 15). Format: in vivo, mice. The following applies: VEGF-c injected into CSF, 5 days after injection, vs PBS. As to the method:
FIGS. 15A-E are a series of diagrams, microscope images, and graphs showing modulation of the meningeal lymphatic affects drainage into the cervical lymph nodes. […] Fluorescent microbeads (0.5 μm in diameter-5 μl) were injected in the lateral ventricle of mice at a rate of 0.5 μl/min. 30 min later, the deep cervical lymph nodes were harvested, sliced and immunostained for the presence of fluorescent beads. FIG. 15B is a pair of representative sections of deep cervical lymph nodes from sham operated (left) and ligated (right) mice immunostained for lymphatic vasculature (Lyve-1), fluorescent microbeads and Lyve-1. Note the accumulation of microbeads in the subcapsular space of the lymph nodes in the sham operated mice (left). […] N=3-4 mice per group, Student-t-test. d. Quantification of the coverage of dCLN section by fluorescent beads in PBS and Visudyne injected mice (24 h after ablation). N=3-5 mice per group, *p<0.05, Student-t-test. e. Quantification of the coverage of dCLN section by fluorescent beads in PBS and VEGF-c injected mice (5 days after VEGF-c injection). N=4 mice per group.

“Also recorded” adds a separate entry of the source.

B1: VEGF-C156S: recombinant human VEGF-C156S, applied in a gel matrix on a thinned skull (protein, UniProt P49767 112-227, looked up, variant C156S)
Vascular endothelial growth …: AHYNTEILKSIDNEWRKTQCMPREVCIDVGKEFGVATNTFFKPPSVSVYRCGGCCNSEGLQCMNTSTSYLSKTLFEITVPLSQGPKPVTISFANHTSCRCMSKLDVYRQVHSIIRR
In the case of B1, the “drainage of OVA-A647 into the dcLNs” value in assay [1] is given as “increased”.

B2: VEGF-c: VEGFR3 agonist polypeptide, lymphangiogenic growth factor, SEQ ID NO: 1; recombinant protein injected into CSF (FIG. 2e used rhVEGF-c Cys156Ser) (protein, listed as Homo sapiens)
chain: MHLLGFFSVACSLLAAALLPGPREAPAAAAAFESGLDLSDAEPDAGEATAYASKDLEEQLRSVSSVDELMTVLYPEYWKMYKCQLRKGGWQHNREQANLNSRTEETIKFAAAHYNTEILKSIDNEWRKTQCMPREVCIDVGKEFGVATNTFFKPPCVSVYRCGGCCNSEGLQCMNTSTSYLSKTLFEITVPLSQGPKPVTISFANHTSCRCMSKLDVYRQVHSIIRRSLPATLPQCQAANKTCPTNYMWNNHICRCLAQEDFMFSSDAGDDSTDGFHDICGPNKELDEETCQCVCRAGLRPASCGPHKELDRNSCQCVCKNKLFPSQCGANREFDENTCQCVCKRTCPRNQPLNPGKCACECTESPQKCLLKGKKFHHQTCSCYRRPCTNRQKACEPGFSYSEEVCRCVPSYWKRPQMS
Turning to B2, in assay [1], the “OVA-A647 influx from the CSF into the parenchyma” value is reported as “improved CSF influx into brain”. In addition, the figures for the “diameter of meningeal lymphatic vessels” value in assay [2] and in assay [2] (listed as recombinant VEGF-c) were “increase in diameter; also recorded: increase the diameters of meningeal lymphatic vessels” and “sufficient to increase diameter”, respectively. The entries for the “lymphatic drainage (efficacy) after VEGF-c” value in the assay on meningeal lymphatic and with meningeal lymphatic (listed as recombinant VEGF-c) were “improves the drainage” and “increase drainage efficacy”, respectively.
